Experimental data taken from article PMC2930068.
Like-named read-outs stand apart in the source and are kept apart here. Blank lines part the entries; values can stand above or below the substance they belong to.

Assays:
[1] = target: full-length importin-α5 with C-terminal Strep-tag (human) (UniProt P52294); assay: SEC
STAT1 = STAT1 (UniProt P42224); assay: sedimentation velocity analytical ultracentrifugation; settings: reference: uSTAT1; sites Y701
[2] = target: importin α5, GST-tag removed (human) (UniProt P52294); assay: AUC
[3] = target: GST-importin α1/α5 (res. 1-446 of α1/449-538 of α5) (human) (UniProt P52292); assay: SPR
[4] = target: GST-importin α5 (1-538) Tyr476Gly (human) (UniProt P52294); assay: SPR
Chain of GST-importin α5 (1-538) Tyr476Gly (human) (P52294 whole entry Y476G): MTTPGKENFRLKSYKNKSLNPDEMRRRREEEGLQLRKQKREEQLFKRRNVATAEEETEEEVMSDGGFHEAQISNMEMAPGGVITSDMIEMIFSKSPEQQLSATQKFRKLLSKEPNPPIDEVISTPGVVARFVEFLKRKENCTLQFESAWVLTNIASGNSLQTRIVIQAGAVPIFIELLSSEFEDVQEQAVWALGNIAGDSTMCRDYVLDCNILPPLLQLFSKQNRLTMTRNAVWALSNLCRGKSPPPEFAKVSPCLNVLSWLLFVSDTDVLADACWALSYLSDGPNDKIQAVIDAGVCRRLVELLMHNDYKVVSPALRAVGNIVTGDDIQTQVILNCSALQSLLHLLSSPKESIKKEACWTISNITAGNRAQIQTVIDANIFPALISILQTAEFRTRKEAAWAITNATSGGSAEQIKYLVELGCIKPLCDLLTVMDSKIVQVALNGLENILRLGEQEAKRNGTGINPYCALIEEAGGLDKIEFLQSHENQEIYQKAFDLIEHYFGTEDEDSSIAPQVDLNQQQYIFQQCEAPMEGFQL

[5] = target: GST-importin α5 (res. 1-538) (human) (UniProt P52294); assay: SPR
[6] = target: GST-importin α5 (res. 1-538) (human) (UniProt P52294); assay: SPR; remark: listed apart in the source
[7] = target: GST-importin α5 (1-538) Tyr476Gly (human) (UniProt P52294); assay: SPR; remark: listed apart in the source

Chain of phosphorylated-Tyr701 STAT1 (1-712), N-terminal 6-histidine tag (P42224 1-712): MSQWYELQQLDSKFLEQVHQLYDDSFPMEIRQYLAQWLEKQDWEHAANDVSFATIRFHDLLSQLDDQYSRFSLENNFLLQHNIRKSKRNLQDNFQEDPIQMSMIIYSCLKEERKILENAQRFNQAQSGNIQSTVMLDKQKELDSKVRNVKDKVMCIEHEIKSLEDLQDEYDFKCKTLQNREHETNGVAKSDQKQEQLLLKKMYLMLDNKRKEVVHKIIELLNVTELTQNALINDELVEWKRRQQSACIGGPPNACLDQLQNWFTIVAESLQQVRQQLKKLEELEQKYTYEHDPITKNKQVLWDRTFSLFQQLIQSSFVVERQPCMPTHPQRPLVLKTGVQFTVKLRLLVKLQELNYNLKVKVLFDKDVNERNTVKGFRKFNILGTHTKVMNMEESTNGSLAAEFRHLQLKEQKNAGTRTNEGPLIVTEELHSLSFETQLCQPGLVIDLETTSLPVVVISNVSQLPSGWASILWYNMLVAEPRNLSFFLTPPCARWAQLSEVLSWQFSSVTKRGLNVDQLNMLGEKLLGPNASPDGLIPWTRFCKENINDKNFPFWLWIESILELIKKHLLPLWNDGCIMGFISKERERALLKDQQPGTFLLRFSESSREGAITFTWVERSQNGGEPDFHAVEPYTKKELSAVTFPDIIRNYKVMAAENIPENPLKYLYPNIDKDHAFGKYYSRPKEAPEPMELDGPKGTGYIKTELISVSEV
Chain of STAT1 (from UniProt P42224) pSTAT1 (P42224 whole entry, change not shown): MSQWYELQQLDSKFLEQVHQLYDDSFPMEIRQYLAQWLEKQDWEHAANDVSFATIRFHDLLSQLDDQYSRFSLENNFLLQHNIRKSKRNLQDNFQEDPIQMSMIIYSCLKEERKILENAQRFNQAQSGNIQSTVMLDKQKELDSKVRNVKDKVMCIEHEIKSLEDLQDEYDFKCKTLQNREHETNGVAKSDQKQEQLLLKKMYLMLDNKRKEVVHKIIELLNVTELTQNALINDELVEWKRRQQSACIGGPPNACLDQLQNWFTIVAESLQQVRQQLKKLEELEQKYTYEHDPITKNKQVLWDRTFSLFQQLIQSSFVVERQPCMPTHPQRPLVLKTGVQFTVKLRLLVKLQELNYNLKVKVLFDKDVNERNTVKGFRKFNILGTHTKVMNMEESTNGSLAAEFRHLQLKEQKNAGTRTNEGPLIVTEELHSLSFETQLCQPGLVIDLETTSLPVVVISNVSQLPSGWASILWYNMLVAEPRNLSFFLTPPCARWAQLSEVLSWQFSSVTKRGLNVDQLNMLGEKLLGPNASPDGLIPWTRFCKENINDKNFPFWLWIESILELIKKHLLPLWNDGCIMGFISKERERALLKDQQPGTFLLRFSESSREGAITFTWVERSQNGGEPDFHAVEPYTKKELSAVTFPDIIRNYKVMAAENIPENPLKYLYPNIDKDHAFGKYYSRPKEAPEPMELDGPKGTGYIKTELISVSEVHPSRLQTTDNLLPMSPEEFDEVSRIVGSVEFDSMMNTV
Chain of STAT1 (UniProt P42224) (P42224 whole entry): as the sequence (P42224 whole entry, change not shown) above

- stoichiometry N (pSTAT1 dimer per importin α5 molecule) [1]: 1
Substance: Strep-tagged phosphorylated-Tyr701 STAT1 (from UniProt P42224 1-750) (natural protein)

- other: molecular weight (STAT1): same; reference ~180
Substance: STAT1 (from UniProt P42224) pSTAT1

- stoichiometry N (pSTAT1 dimer per importin α5 molecule) [2]: 1
- Kd [3]: 542 nM
- Kd [4]: 4300 nM
- koff [4]: 0.289 s⁻¹
- kon [4]: 66600 M⁻¹ s⁻¹
- Kd [5]: 191 nM
- koff [5]: 0.0189 s⁻¹
- kon [5]: 98800 M⁻¹ s⁻¹
- koff [6]: 0.0183 s⁻¹
- koff [7]: 289 s⁻¹
Substance: phosphorylated-Tyr701 STAT1 (1-712), N-terminal 6-histidine tag (from UniProt P42224-2 1-712) (natural protein)
